Source: patent publication US20220256794A1, “TERPENE SYNTHASES AND TRANSPORTERS” (The State of Israel, Ministry of Agriculture & Rural …, priority 2019, published 2022)

How the values were obtained:
[1] = Terpene synthase activity assay with GPP; type: biochemical; details: TPS expressed in E. coli; 10 μM GPP, overnight at 30° C., SPME GC-MS
Protocol: Putative terpene synthase genes were synthesized by the TWIST Co., and cloned into Novagen pET-28a(+) with a 6×His tag at its' N-terminus. The recombinant plasmid was then sequenced for authentication and transformed into BL21(DE3) pLysS and pLysE strains of E. coli (Agilent Technologies) for heterologous expression. An overnight culture was used to inoculate a 20-200 mL culture, induced with 0.1 mM IPTG at an OD 600 nm >0,8 for initiation of recombinant protein translation then incubated at 18° C. and 250 RPM overnight. The cells were collected by centrifugation and the recombinant enzymes were extracted either as a crude extract or purified on a Ni-NTA agarose resin as previously described [Gonda I. et al., The Plant Journal (2013) 61, 458-472].
To determine the terpene synthase catalytic activity, reaction mixtures containing 100 μl of protein extract or purified protein were incubated overnight at 30° C. with either 10 μM geranyl diphosphate (GPP) or farnesyl diphosphate (FPP), in a final volume of 200 μl using a buffer containing 50 mM bis-tris, pH 6.9, 1 mM DTT, 10% (v/v) glycerol, 0.1 mM of MnCl2 and 10 mM of MgCl2. The volatiles produced were extracted by solid-phase microextraction (SPME) according to the methodology previously described [Iijima Y. et al., Plant Physiol (2004) 136: 3724-3736]. As controls, reactions were carried out without the cofactors MnCl2 and MgCl2, or protein extracts were heat inactivated by incubation at 100° C. for 5 minutes, or a short peptide product of an empty pET100 vector was utilized.
For solid-phase microextraction (SPME) analysis, a 57298-U SPME fiber assembly Divinylbenzene/Carboxen/Polydimethylsiloxane (DVB/CAR/PDMS, Supelco) needle size 23 ga, StableFlex, was used with an autosampler and analyzed by GC-MS as previously described [Davidovich-Rikanati R. et al., Nature Biotech (2007) 25:899-901; Davidovich-Rikanati R. et al., Plant J (2008) 56:228-238]. The SPME fiber were adsorbed for 30 min. by automatic HS-SPME at 50° C. followed by injection of the fiber into a GC-MS injection port for 5 min. (splitless), for desorption of the volatiles. Chiral separation was conducted on a Restek Rt™-bDEXsm column (30 m length 0.25 mm i.d., 0.25 μm film thickness, 2,3-di-O-methyl-6-O-tert-butyl dimethylsilyl beta cyclodextrin added into 14% cyanopropylphenyl/86% dimethyl polysiloxane). Helium (0.8 ml min-1) was used as a carrier gas with splitless injection. The injector temperature was 250° C., and the detector temperature was 230° C. The following conditions were used: initial temperature 40° C. for 5 min., followed by a ramp of 2° C./min. to 110° C., and 10° C./min up to 230° C. (5 min.). A quadrupole mass detector with electron ionization at 70 eV was used to acquire the MS data in the range of 41 to 350 m/z. The identification of the volatiles was assigned by comparison spectral data with the W10N11 and HPCH2205 GC-MS libraries and with authentic standard when available.

[2] = tested on: yeast cells; test: Yeast growth (turbidity A600) in the presence of CBD; type: cell-based, Saccharomyces cerevisiae (strain Y1HGold); details: 0.5 mM CBD, 7-12 hours, FIG. 2
Protocol: The genes were expressed in yeast and tobacco. For yeast, the ABC and PTR Transporter genes were synthesized by the TWIST Co, cloned and expressed (individually) in the yeast expression vector pESC-URA (Agilent Technologies) for expression under the yeast native gal-10 promoter. Competent Saccharomyces cerevisiae (strain Y1HGold, CloneTech) cells were prepared, transformed by each of the resulting vector and selected on yeast synthetic media lacking Uracil as previously described [GietzR. D., Methods Mol. Biol. (2014) 1205:1-12].
An alternative method is to measure the yeast growth as a function of turbidity. Transformed yeast cells were grown on URA-glucose broth at 30° C. at 200 RPM, and after 24 hours 100 μl was used to inoculate 5 ml of URA-galactose broth in the same conditions till O.D.600 of 1.5. The yeast was further diluted to OD600=0.05 with 10 ml URA-galactose, and divided into two 5 ml aliquots into separate 50 ml falcon tubes. The first falcon (control) was added 78 μl acetonitrile (the solvent that the CBD was dissolved in), and the second one was added 78 μl CBD solution in acetonitrile (final CBD concentration=0.5 mM). […]

Molecule | Monoterpenes produced with GPP [1] | inhibition of yeast growth in response to CBD, transporter-expressing yeast vs control yeast [2]
792-7: Cannabis terpene synthase gene product, amino acid SEQ ID NO: 12 (protein, Terpene Synthase Gene Amino acid sequence of the 45 identified gene products) MSPCEATIDEKRPNMPKFTPTIWGDYFMSSASNHHHSSLMETMENNNKESYEKIIEMKEQVKNKLLHGLHPLENPLETLEYIDDIQRLGLSYYFENEIEQNLEQFHNNYQNLIDFGDNNLYADALCFRLLRQQGYNIACDIFDKYKNEKGKFKESISSDIRGMLNLYEAAQMRVHGEKILDEALIFTTTHLESSVKTCQLSSPYLDLVKHALMHPIRKSLQRREARLYISLYHQLPSHEEILLTLAKLDFNLLQKLHQKELSYITRWWKEFDYKSKHSFIKDRIVECYFWVYGVFFEAETSQIRLIITKLIAILTIIDDAYDSFGTLEELEPFTQAIERWDICAIDTLPEYMKIFYMKLLEIYNEIEQFSKERSYCPSYAKKGVQSLIRAYFKEAKWLHTKYIPTLDEYMPVGVDSAGSFMLISMVFIGMGDIVTKHSMDWIFSNPQPKIIQTMAIVGRVMNDIGYHKSERKKSSGEIVASTVECYMKQYGVTGEEAIEKLSEQVKDSWKDLNEDLLNPITIPRPLLMQVLKLVRVNHEIYREGDGFTQPTLLKNLIHSLIINPIDF | beta-myrcene/geraniol | –
795-1: Cannabis terpene synthase gene product, amino acid SEQ ID NO: 18 (protein, Terpene Synthase Gene Amino acid sequence of the 45 identified gene products) MITGVISSSTTIFKEQPEAIVRRSGNYKPTLWDAHFFKSLQVIYTEESYGKRINELKEDVRRILEKEAENPLVKLEQINDLSRLGISYHFEDQIKTILNLTFNNNNALWKKDNLYATALHFKLLRQYGFNPVSSEVFNAFKDQKKEFKESLSKDVKGMVCLYEASFYSFRGEPILDEARDFTTKHLKQYLMTRQCQTKSVDHDDDHDLVKLVEHALDLPLHWRLPRLEARWFIDMYAERNYDMNPTFLDFAKLDYNFVQSAYQKELKYISRWWSGSRLTERLPFARDRVVEIFYSAVALKYEAEFGFVRTVMTKIGLLLTLMDDIYDVYGTLDELQLFLGAIERWNINELDQLPDYMKILFVAFYNNVNEISYYVLKENGIHIIKYLKKALGDLCKCYMEEAKWFHSGHIPSLEEFIENGWKSITIPLCLIYHYCLITTSITEQDMEHLLQYPTILRVSGTVFRFIDDLGTSSDELERGDNPSSIQCYMREKGVSENESREHIWNLISEGWKEINEVKASNSPYSQVFIESAIDFVRGAMEMYHKGDGFGTNQDRYLKTKVVNMFFDPIPI | geraniol | –
796-3: Cannabis terpene synthase gene product, amino acid SEQ ID NO: 23 (protein, Terpene Synthase Gene Amino acid sequence of the 45 identified gene products) MDTQRKLQAEQLSCPTKSHELIFDHKSDHQRRSANYTPTIWKYDFLESLNNKYDSEEYKKRSEKLIEDVRHNIVETKDLKGMLELINTIRKLSLTYHFEDEVKKVLDKISSSNYYYNNKDIKDPRLVGDDLYLAALYFRLLRLHGYQVSQDIFVGYNSVDYKKGGGTHNITSTEVKVMIELLEASHVAFECEDTLTEAKALMEENLKIAFPDNCNKYIPKHEVVHALELPSHWRVQWFDVKWQIEAYRQHGDPDTNTTTTTSLLVDLAKLNFNIIQATLQKDLRELSSWWKNVGLSEKLEFARDRLVESFMCTVGLAFQPEYKSLRKCLTKVVNFILIVDDVYDVYGSLEELRHFTNAVNRWDVRETEELPDCMKICFQALYHTTCEIASEIETKNGCKLVLPNLKGAWTDFCKSLLMEAEWYHKGYIPSLEEYLSNAWISSSGPLLLLHSYLAMPNQTNTASSLDISKDLVYNISLIIRLCNDLGTSAAEQERGDAASSIVCYMQETKSSEEEARKHIREMIRKTWKKINKTCFSTCGSSSLSLSFIDIALNTARVAHSLYQSGDAFSAQHTDYKTHILSLLVHPLIPNK | geraniol | –
T-AG2575-2: Cannabis ABC-G transporter gene product, amino acid SEQ ID NO: 56 (protein, ABC+PTR Transporter amino acid sequence (of the 12 identified gene products)) MEVGDLYRAGNSLRNISLRSSTSSVWRGNNNNNNNKDEYFSKSRREDDINDEEALTWAALEKLPTYDRLRKGILTTSKGETTEVDVINLGFKQRKDLLQRLVNVADEDNESFLLKLKQRIQTVGIDLPTIEVRFENVKVEADVHVGSRALPSFINFCINIIEMLVSFLPILKSKKKHVTILDDVSGAIKPGRLTLLLGPPSSGKTTLLLTLAGKLASELKFSGRVTYNGHEMNEFIPQRTAAYISQHDVHIGEMTVRETLSFSARCQGVGTRYEMLAELSRREKEANIKPDPDIDIFMKATSTEGQKSSVVTDYVLKILGLEVCADTVVGDEMLRGISGGQRKRVTTGEMLVGPSGVLFMDEISTGLDSSTTYQIVNSLKQYVHIFNGTNVISLLQPAPETYDLFDDIILLSDGHIVYQGPRENVLEFFEFTGFKCPERKAIADFLQEVTSKKDQAQYWTRGDEAYRFVSAKEFVEAFKSFHVGQKIREYLSTPFDKTKSHPAALTTKNFGLNKMELLKACMSREYLIMKRNSFVHIFKIVQLSVMGLIHGTLFLRTKMHHRTLEDGTIYLGSLFFAALMIMFNGMSEIPMTIAKLPVFYKQRDLQFFPAWAYAVPSMLFKVPIAFLEVAVWIILTYYTTGLEPSVVRMFRLYFILVIVNQMASGLFRSIAALSRNMIIANTFGAFSLLLLFVLGGFVLSRDDINSGWIWAYWVTPLMYGQTGILVNEFRGSKWNKVTPNSTETLGIQVLKSKGFFTDSYWYWLGFGVLVAYTVLFNILYTLALNYLNSIEKSQALSNEDPENNDHEIQVGRETRTNEIQQTSSINNTGENQSKKKGMILPFEPHSITFNDVIYSVDMPQAMKNQGVVEDKLVLLKGVSGSFRPGVLTALMGISGAGKTTLMDVLAGRKTGGYIEGDIRISGYPKKQETFARISGYCEQNDIHSPHVTVYESLLYSAWLRLPTEVDSEKRKMFIEEVMELVELTPLRQALVGLPGVSGLSTEQRKRLTIAVELVANPSIIFMDEPTSGLDARAAAIVMRTVRNTVDTGRTVVCTIHQPSIDIFEAFDELFLMKRGGEEIYVGPLGRHSCHLINYFEAIEGVSKIKNGYNPGTWMLEVSSSAQEIALGVDFANIYKNSELCKRNKDLIKELSSPAPGSKDLYFPTQFSRSLNTQCIACLWKQRQSYWRNPLYTAVRFMFTTFIALIFGTVFWDLGSKRSNIQDLSNALGSMYCAVLFIGIQNASSVQPVVSVERSVFYREKAAGMYSAFPYSFGQLVVEIPYILCQSVVYCLIVYAMIGFEWTAIKFFWFLFFSFFSMLYFTFYGMMAVGITPNNHIASIVSSAFYSVWNLFSGFIIPRTRMPVWWKWYYWGCPVSWTLYGLLVSQYGDVDDVINAVTGETVKQYLRSYLGYKHDFIGVVAVVNVLFALLFGSIFAFSVKILNFQNR | – | reduced inhibition of growth
